# Measurements as given in patent US20140134737, “Alternative Splicing Modulators and Splice Variants and Their Use in the Control and Detection of Pluripotency and Differentiation” (Governing Council of the University of Toronto, published 2014).
# T1: FOXP1-ES forkhead domain (exon 18b) (Homo sapiens)
# T1 chain: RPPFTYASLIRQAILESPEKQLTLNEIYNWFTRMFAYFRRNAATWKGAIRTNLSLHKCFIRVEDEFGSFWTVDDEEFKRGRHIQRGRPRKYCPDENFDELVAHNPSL
# T2: FOXP1 forkhead domain (canonical, exon 18) (Homo sapiens, UniProt Q9H334 SEQ:465-555)
# T2 sequence: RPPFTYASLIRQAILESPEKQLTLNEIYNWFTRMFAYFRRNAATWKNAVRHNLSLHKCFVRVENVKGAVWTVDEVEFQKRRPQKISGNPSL
# Columns and labels:
# Settings in all cases: tags: GST fusion; label: radiolabeled
# [1] = biological target: T1, FOXP1-ES forkhead domain (exon 18b); assay: EMSA; no appreciable shift
# Protocol: (§1) Radiolabeled dsDNA probes containing two copies of each 8-mer (top panels), or two copies of mutant versions of these sequences CCACTCAA, ATGCAGGA, CTATCCAA and AACCCCAA (bottom panels) were incubated in the absence (lanes 1, 10, 19 and 28) or in the presence of increasing amounts (0.2 to 3.2 pmol) of recombinant GST-FOXP1 or GST-FOXP1-ES proteins. Positions mutated in the probe sequences are underlined. Shifted protein-dsDNA complexes are indicated by arrows and free dsDNA probe is indicated by an asterisk.
# [2] = biological target: T2, FOXP1 forkhead domain (canonical, exon …); assay: EMSA; no appreciable shift
# Protocol: as §1
# [3] = biological target: T1, FOXP1-ES forkhead domain (exon 18b); assay: EMSA; no appreciable shift
# Protocol: (§2) FIG. 2(C) is an Electrophoresis Mobility Shift Assay (EMSA) validating PBM-derived consensus DNA binding sites for FOXP1 and FOXP1-ES. Radiolabeled dsDNA probes containing two copies of GTAAACAA (top left panel), AATAAACA (top middle panel) or CGATACAA (top right panel), or two copies of mutant versions of these sequences GGACACAA (bottom left panel), AATGGACA (bottom middle panel) or CGCGACAT (bottom right panel) were incubated in the absence (lanes 1, 9 and 19) or in the presence of increasing amounts (0.2 to 3.2 pmol) of recombinant GST-FOXP1 or GST-FOXP1-ES proteins. Positions mutated in the probe sequences are underlined. Shifted protein-dsDNA complexes are indicated by arrows and free dsDNA probe is indicated by an asterisk.
# [4] = biological target: T2, FOXP1 forkhead domain (canonical, exon …); assay: EMSA; no appreciable shift; remark: listed apart in the source
# Protocol: as §2
# [5] = biological target: T1, FOXP1-ES forkhead domain (exon 18b); assay: EMSA; preferentially bound by FOXP1-ES
# Protocol: as §2
Binder,binding result [1],binding result [2],binding result [3],binding result [4],binding result [5]
AACCCCAA x2 mutant (dsDNA) DNA 1: AACCCCAACCAACCCCAA DNA 2: TTGGGGTTGGTTGGGGTT,no binding,no binding,,,
CTATCCAA x2 mutant (dsDNA) DNA 1: CTATCCAACCCTATCCAA DNA 2: TTGGATAGGGTTGGATAG,no binding,no binding,,,
ATGCAGGA x2 mutant (dsDNA) DNA 1: ATGCAGGACCATGCAGGA DNA 2: TCCTGCATGGTCCTGCAT,no binding,no binding,,,
GGACACAA x2 mutant (dsDNA) DNA 1: GGACACAACCGGACACAA DNA 2: TTGTGTCCGGTTGTGTCC,,,no binding,no binding,
CCACTCAA x2 mutant (dsDNA) DNA 1: CCACTCAACCCCACTCAA DNA 2: TTGAGTGGGGTTGAGTGG,no binding,no binding,,,
CGCGACAT x2 mutant (dsDNA) DNA 1: CGCGACATCCCGCGACAT DNA 2: ATGTCGCGGGATGTCGCG,,,no binding,no binding,
AATGGACA x2 mutant (dsDNA) DNA 1: AATGGACACCAATGGACA DNA 2: TGTCCATTGGTGTCCATT,,,no binding,no binding,
AATAAACA x2 probe (dsDNA) DNA 1: AATAAACACCAATAAACA DNA 2: TGTTTATTGGTGTTTATT,,,,,binds
